Data as given in the supplement of paper PMC10126150.
± gives the standard deviation of the averaged measurements.

System: ATP
Test: switch fluorescence ratio, 500 uM ATP over buffer (Cy3 cluster intensity, sum of 5 cycles each) (fold (ratio)); higher = stronger signal-on switching upon ATP binding; sequences stand for … in TCGTCGGCAGCGTCAGATGTGTATAAGAGACAGTTTTTTTTTTTTTTTTTTTTTTTTT…TC
Conditions: aptamer strand: ATP DNA aptamer (quencher-CACCTGGGGGAGTATTGCGGAGGAAGG + anchor), 100 nM annealed; ATP concentration: 500 uM
How it was run: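 Switching-strand clusters labelled with Cy3 on a modified Illumina MiSeq flow-cell were annealed to 100 nM quencher-labelled ATP aptamer, imaged in selection buffer, and re-imaged after 15 min with 500 uM ATP at 22 °C. This was done over five cycles with NaOH stripping and re-annealing in between. The fluorescence ratio is summed target-cycle over summed buffer-cycle Cy3 intensity per cluster, averaged per switch-domain sequence, excluding clusters outside 100-1000 RFU.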
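Further: ATP exposure 15 min at 22 °C before imaging.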

Sequence | switch fluorescence ratio
CAGATTGCTC | 0.982 ± 0.037
TTATGATTTA | 0.9434 ± 0.0029
GGGGGGTACC | 1.08 ± 0.13
CGTCCTATTT | 1.01 ± 0.029
GCTGGGAGGG | 0.979 ± 0.022
GAGATGTCTT | 0.9833 ± 0.0078
TGGAGGAGAG | 0.99 ± 0.018
CGAGGCTAGG | 1.07 ± 0.021
GATTCGCCTG | 0.99 ± 0.016
TTTTTTACAT | 1.01 ± 0.018
TTCCTCCCCT | 1.7 ± 0.82
GCCTTAGTGA | 0.9959 ± 0.0046
TACGGGCTTT | 1.03 ± 0.033
TAAGGAAGGA | 0.9919 ± 0.0054
AGGGCACATA | 1.0764 ± 9.5e-05
GTGGCAACGC | 0.98 ± 0.021
GGGGGGTAAA | 1.04 ± 0.075
TGATAGGGAG | 0.982 ± 0.019
CACGATTTTT | 0.988 ± 0.022
GGGCACCAGG | 1.21 ± 0.03
TAAATACGGG | 1.03 ± 0.016
CATCAAAAAT | 1.29 ± 0.3

Sequence | switch fluorescence ratio
TGGTCGTACG | 0.937 ± 0.071
GGTTGAGCGT | 1.01 ± 0.047
CAGTGTCGGG | 0.9984 ± 0.0085
AACCGTGGGG | 1.05 ± 0.042
CATATGATCG | 0.961 ± 0.025
TATCGGTCGG | 0.98 ± 0.021
GTGACCTGGG | 1.03 ± 0.026
TCTAGTGGTA | 0.9893 ± 0.0096
AATAGGTTGG | 0.994 ± 0.029
CGTTGTCGTT | 1.01 ± 0.055
ATCCTCTCGG | 1.05 ± 0.017
ATGAGGTTTC | 0.989 ± 0.016
TCACACGGGG | 1.03 ± 0.061
TTTTACTATG | 0.9893 ± 0.0041
GCATTTGGGA | 0.99 ± 0.012
AGGATAAAGG | 1.03 ± 0.036
TATCGTATTG | 0.979 ± 0.011
CGAGCCAGAT | 1.04 ± 0.028
TAATGCGATG | 0.9852 ± 0.005
TTTAAAAGGT | 1 ± 0.011
TTTTTGAAAC | 1.01 ± 0.027
GGGTATGTGA | 0.961 ± 0.037

Sequence | switch fluorescence ratio
AAGAGGGATG | 0.988 ± 0.043
ATGGTTCGGG | 0.996 ± 0.014
ATTGAGGGAG | 1 ± 0.024
TTATTTAGGA | 0.989 ± 0.027
TTTTTGAATT | 1 ± 0.034
TGGCTTGTTT | 0.99 ± 0.058
TAGAGGATGC | 0.998 ± 0.07
GGGTGATCCT | 1.02 ± 0.073
GCTAGGGGTG | 1.07 ± 0.055
TGTAGTGAGT | 0.959 ± 0.037
TGGCCGTGCT | 0.904 ± 0.071
TAAGTTTTTT | 0.99 ± 0.02
GGGATGAACG | 1.04 ± 0.021
TGGGAGAGGA | 1.02 ± 0.049
CTTTCAAAAA | 1.03 ± 0.015
GCTGGGTTTC | 0.996 ± 0.02
TGATTTAGTT | 0.989 ± 0.02
TAGGCTGCTG | 0.988 ± 0.021
TACAGTTTCG | 1.03 ± 0.05
GGGTGGTTGG | 0.999 ± 0.0088
ACGTACTATT | 1.45 ± 0.23
TGACGAAGGA | 1.23 ± 0.3

Sequence | switch fluorescence ratio
GATGTGGGCA | 1.05 ± 0.026
ACTGTACACC | 1.46 ± 0.026
CAATTGGCGT | 0.967 ± 0.021
GGGATGGCAT | 0.995 ± 0.034
GAGTTCATAG | 1 ± 0.013
AAAGAAAGGA | 0.977 ± 0.032
AAGGTGTTTC | 1.083 ± 0.0066
GGGATGGCCT | 0.959 ± 0.011
TCTTTGGGCT | 1.1 ± 0.19
AATTGGGTGC | 1.09 ± 0.12
CTATTGGTTA | 1.01 ± 0.011
TGGAAAAATT | 1.03 ± 0.04
TCTTCACGTC | 1.003 ± 0.0029
AGATTGTACG | 1.006 ± 0.0017
AAGATGATGT | 0.986 ± 0.03
CAAATGCCCG | 0.934 ± 0.055
CGTTTGGGCT | 1.023 ± 0.0037
CATCCACGTA | 1.2 ± 0.083
TTGAATTATT | 1.03 ± 0.013
